Data on two substances can be found in US20190375835A1.

Experiment [1] addresses macrophages (FcR). Nature of the experiment: cell-based or functional assay.
For experiment [2], the target named is soluble TNF-alpha (UniProt P01375). Nature of the experiment: cell-based or functional assay.
Sequence of soluble TNF-alpha (P01375 77-233 limits assumed): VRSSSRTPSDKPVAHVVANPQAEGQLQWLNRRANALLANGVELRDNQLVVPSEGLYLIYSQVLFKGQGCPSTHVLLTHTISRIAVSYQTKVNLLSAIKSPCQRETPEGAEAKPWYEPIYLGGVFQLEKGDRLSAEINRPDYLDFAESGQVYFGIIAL

With “Humira antibody from Abbott (commercial adalimumab)”, the phagocytosis (MFI 37°C - MFI 4°C) in the presence of IVIg 1 mg/ml in experiment [1] was 6.72 MFI. For the same substance, the phagocytosis value (MFI 37°C - MFI 4°C, arbitrary unit) in experiment [2] amounted to 12.5 MFI.
As to “transgenically produced adalimumab antibody (purified from the milk of transgenic goats, glycosylated)”, in experiment [1], the phagocytosis (MFI 37°C - MFI 4°C) in the presence of IVIg 1 mg/ml is 13.3 MFI. Also, in experiment [2], the phagocytosis value (MFI 37°C - MFI 4°C, arbitrary unit) amounted to 15 MFI.
